Measured values from the supplement of paper PMC10724198.
± gives the standard deviation of the averaged measurements.

Experiments:
Saccharomyces cerevisiae [1] = experiment: protein stability index of tFT-peptide fusion (C-terminal peptide) (PSI (0-1 scale)); higher = more stable (slower turnover)
Protocol: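 MPS profiling in S. cerevisiae of the tFT-X12 degron library: putative degron peptides plus stable controls, 12 aa, fused to the C-terminus of a sfGFP-mCherry timer. Cells are FACS-sorted into 8 mCherry/sfGFP bins and deep-sequenced. PSI runs from 0 (unstable) to 1 (stable). Backgrounds are wild type, das1Δ and doa10Δ at 30 °C, and wild type, das1Δ, cdc34-1 and cdc53-1 at 37 °C; 2-3 technical replicates each.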

Saccharomyces cerevisiae [2] = experiment: as above; settings: genetic background: wild type; temperature: 30 C
[3] = genetic background: cdc34-1, temperature: 37 C
[4] = genetic background: cdc53-1, temperature: 37 C
[5] = genetic background: das1 deletion, temperature: 30 C
[6] = genetic background: das1 deletion, temperature: 37 C
[7] = genetic background: doa10 deletion, temperature: 30 C
[8] = genetic background: wild type, temperature: 30 C
[9] = genetic background: wild type, temperature: 37 C
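Also: PSI is a weighted mean of sequencing reads over stability bins, variants kept only with over 10 reads, mCherry proximal and sfGFP distal, peptide attached via GGGS linker.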

| Sequence | protein stability index (Saccharomyces cerevisiae [1]; [3]) | protein stability index (Saccharomyces cerevisiae [1]; [4]) | protein stability index (Saccharomyces cerevisiae [1]; [5]) | protein stability index (Saccharomyces cerevisiae [1]; [6]) | protein stability index (Saccharomyces cerevisiae [1]; [7]) | protein stability index (Saccharomyces cerevisiae [1]; [8]) | protein stability index (Saccharomyces cerevisiae [1]; [9]) | protein stability index (Saccharomyces cerevisiae [2]) |
| --- | --- | --- | --- | --- | --- | --- | --- | --- |
| PFLCLPFLLVSR | 0.38 ± 0.022 | 0.4056 ± 0.0025 | 0.35 ± 0.029 | 0.49 ± 0.0032 | 0.467 ± 0.017 | 0.363 ± 0.027 | 0.47142 ± 0.0004 | 0.41 ± 0.034 |
| PFPTPPPIPRSP | 0.665 ± 0.012 | 0.7375 ± 0.0026 | 0.686 ± 0.015 | 0.729 ± 0.0085 | 0.706 ± 0.035 | 0.696 ± 0.012 | 0.7051 ± 0.0068 | 0.464 ± 0.05 |
| PGRHSVRFVFVC | 0.349 ± 0.023 | 0.519 ± 0.046 | 0.444 ± 0.019 | 0.581 ± 0.024 | 0.113 ± 0.0067 | 0.112 ± 0.028 | 0.143 ± 0.0068 | 0.208 ± 0.06 |
| PKRNNRKAQQIS | 0.61 ± 0.015 | 0.698 ± 0.038 | 0.689 ± 0.019 | 0.704 ± 0.06 | 0.249 ± 0.016 | 0.254 ± 0.043 | 0.493 ± 0.019 | 0.405 ± 0.032 |
| PPAPTPFPPSPR | 0.687 ± 0.037 | 0.7216 ± 0.0033 | 0.669 ± 0.034 | 0.741 ± 0.018 | 0.697 ± 0.026 | 0.672 ± 0.024 | 0.728 ± 0.01 | 0.593 ± 0.14 |
| PPLPPPPASVPP | 0.675 ± 0.022 | 0.719 ± 0.025 | 0.641 ± 0.011 | 0.7088 ± 0.0051 | 0.6476 ± 0.0014 | 0.682 ± 0.041 | 0.68 ± 0.03 | 0.503 ± 0.016 |
| PPPPPPPFLFFL | 0.706 ± 0.018 | 0.795 ± 0.019 | 0.643 ± 0.013 | 0.747 ± 0.013 | 0.458 ± 0.015 | 0.472 ± 0.022 | 0.61 ± 0.013 | 0.496 ± 0.061 |
| PPTRVPVTLFLV | 0.395 ± 0.013 | 0.673 ± 0.017 | 0.619 ± 0.0097 | 0.6761 ± 0.0013 | 0.0767 ± 0.022 | 0.0832 ± 0.011 | 0.09 ± 0.0034 | 0.153 ± 0.013 |
| PRLWLYCLIISL | 0.173 ± 0.032 | 0.214 ± 0.016 | 0.186 ± 0.039 | 0.335 ± 0.015 | 0.157 ± 0.011 | 0.14 ± 0.03 | 0.277 ± 0.022 | 0.2062 ± 0.00075 |
| PVCRQVGVRLVA | 0.582 ± 0.022 | 0.625 ± 0.052 | 0.525 ± 0.025 | 0.6482 ± 0.0047 | 0.265 ± 0.0046 | 0.311 ± 0.034 | 0.466 ± 0.039 | 0.456 ± 0.045 |
| PVSEPCAWRIIA | 0.374 ± 0.015 | 0.689 ± 0.026 | 0.6769 ± 0.0044 | 0.699 ± 0.018 | 0.0726 ± 0.0028 | 0.0645 ± 0.018 | 0.0736 ± 0.0023 | 0.1098 ± 0.00053 |
| PWFCYVQLVVPV | 0.226 ± 0.02 | 0.266 ± 0.0075 | 0.232 ± 0.035 | 0.349 ± 0.0058 | 0.188 ± 0.0072 | 0.221 ± 0.03 | 0.313 ± 0.0036 | 0.309 ± 0.0036 |
| PYPPTSLPPTWQ | 0.672 ± 0.043 | 0.7459 ± 0.0012 | 0.652 ± 0.0095 | 0.711 ± 0.017 | 0.678 ± 0.023 | 0.671 ± 0.038 | 0.701 ± 0.025 | 0.726 ± 0.026 |
| QGGTWKKLVKMI | 0.573 ± 0.05 | 0.6963 ± 0.006 | 0.643 ± 0.055 | 0.7165 ± 0.0019 | 0.0823 ± 0.02 | 0.101 ± 0.018 | 0.165 ± 0.019 | 0.226 ± 0.035 |
| QNVKRIVRHMLT | 0.62 ± 0.056 | 0.691 ± 0.041 | 0.658 ± 0.008 | 0.723 ± 0.04 | 0.207 ± 0.018 | 0.251 ± 0.022 | 0.41 ± 0.027 | 0.374 ± 0.018 |
| QVSHLFAAVQLA | 0.6103 ± 0.0049 | 0.687 ± 0.018 | 0.555 ± 0.0081 | 0.65 ± 0.0091 | 0.337 ± 0.021 | 0.364 ± 0.051 | 0.573 ± 0.011 | 0.4485 ± 0.00088 |
| QWRMLTCLMERL | 0.446 ± 0.034 | 0.553 ± 0.063 | 0.472 ± 0.015 | 0.4882 ± 0.0037 | 0.398 ± 0.056 | 0.379 ± 0.012 | 0.496 ± 0.03 | 0.379 ± 0.012 |
| RAPPPSSLLSPP | 0.6612 ± 0.0063 | 0.724 ± 0.016 | 0.6499 ± 0.0057 | 0.718 ± 0.027 | 0.687 ± 0.0087 | 0.671 ± 0.029 | 0.706 ± 0.037 | 0.402 ± 0.013 |
| RARRFGKWERSG | 0.644 ± 0.032 | 0.761 ± 0.025 | 0.639 ± 0.013 | 0.731 ± 0.024 | 0.33 ± 0.03 | 0.377 ± 0.03 | 0.544 ± 0.0099 | 0.4453 ± 0.0039 |
| RDPLAPLLLAIP | 0.65 ± 0.038 | 0.717 ± 0.015 | 0.587 ± 0.011 | 0.7006 ± 0.0047 | 0.596 ± 0.04 | 0.609 ± 0.013 | 0.6816 ± 0.0035 | 0.698 ± 0.01 |

| Sequence | protein stability index (Saccharomyces cerevisiae [1]; [3]) | protein stability index (Saccharomyces cerevisiae [1]; [4]) | protein stability index (Saccharomyces cerevisiae [1]; [5]) | protein stability index (Saccharomyces cerevisiae [1]; [6]) | protein stability index (Saccharomyces cerevisiae [1]; [7]) | protein stability index (Saccharomyces cerevisiae [1]; [8]) | protein stability index (Saccharomyces cerevisiae [1]; [9]) | protein stability index (Saccharomyces cerevisiae [2]) |
| --- | --- | --- | --- | --- | --- | --- | --- | --- |
| RDYIAAKLVVCG | 0.4103 ± 0.0032 | 0.425 ± 0.029 | 0.304 ± 0.03 | 0.488 ± 0.0021 | 0.267 ± 0.0034 | 0.318 ± 0.027 | 0.4612 ± 0.0016 | 0.35 ± 0.091 |
| REAFVVLAVFFH | 0.199 ± 0.0062 | 0.321 ± 0.054 | 0.226 ± 0.019 | 0.406 ± 0.02 | 0.193 ± 0.0039 | 0.199 ± 0.03 | 0.315 ± 0.05 | 0.328 ± 0.04 |
| RFCLPLRLPVTT | 0.533 ± 0.028 | 0.5626 ± 0.0042 | 0.461 ± 0.037 | 0.5865 ± 0.0022 | 0.439 ± 0.0083 | 0.458 ± 0.016 | 0.589 ± 0.045 | 0.4497 ± 0.0012 |
| RFFVLSFFFLVS | 0.215 ± 0.013 | 0.335 ± 0.069 | 0.224 ± 0.023 | 0.416 ± 0.014 | 0.209 ± 0.01 | 0.212 ± 0.029 | 0.384 ± 0.0071 | 0.282 ± 0.024 |
| RFGLPLLVVTWL | 0.445 ± 0.0073 | 0.46 ± 0.0074 | 0.394 ± 0.028 | 0.5314 ± 0.005 | 0.4591 ± 0.0032 | 0.402 ± 0.0044 | 0.512 ± 0.011 | 0.468 ± 0.043 |
| RFHTFVFCLLCL | 0.407 ± 0.062 | 0.438 ± 0.018 | 0.432 ± 0.02 | 0.516 ± 0.026 | 0.2796 ± 0.00049 | 0.277 ± 0.015 | 0.386 ± 0.015 | 0.328 ± 0.06 |
| RFLFYSFPIHTL | 0.442 ± 0.061 | 0.6164 ± 0.0028 | 0.572 ± 0.039 | 0.67 ± 0.043 | 0.0683 ± 0.0092 | 0.0745 ± 0.019 | 0.105 ± 0.033 | 0.128 ± 0.0043 |
| RFVLVFLVSLII | 0.376 ± 0.039 | 0.501 ± 0.0079 | 0.399 ± 0.029 | 0.541 ± 0.042 | 0.364 ± 0.016 | 0.397 ± 0.016 | 0.48 ± 0.019 | 0.435 ± 0.035 |
| RGLANLIVIVSS | 0.572 ± 0.04 | 0.602 ± 0.0069 | 0.397 ± 0.022 | 0.603 ± 0.015 | 0.186 ± 0.012 | 0.228 ± 0.027 | 0.392 ± 0.011 | 0.374 ± 0.013 |
| RGSLYLILVLIG | 0.194 ± 0.0058 | 0.349 ± 0.087 | 0.215 ± 0.024 | 0.4035 ± 0.00092 | 0.118 ± 0.033 | 0.163 ± 0.03 | 0.268 ± 0.021 | 0.269 ± 0.026 |
| RHTVFFCQLLLV | 0.291 ± 0.0074 | 0.368 ± 0.0077 | 0.307 ± 0.012 | 0.43923 ± 3.7e-05 | 0.175 ± 0.024 | 0.185 ± 0.026 | 0.277 ± 0.046 | 0.238 ± 0.003 |
| RKNSQKILKLSG | 0.6945 ± 0.0068 | 0.7724 ± 0.0073 | 0.64 ± 0.042 | 0.739 ± 0.024 | 0.256 ± 0.013 | 0.317 ± 0.019 | 0.576 ± 0.029 | 0.502 ± 0.15 |
| RKQLSCIMIWCK | 0.361 ± 0.013 | 0.405 ± 0.012 | 0.204 ± 0.027 | 0.431 ± 0.0082 | 0.188 ± 0.0052 | 0.204 ± 0.015 | 0.40377 ± 0.00039 | 0.298 ± 0.011 |
| RLFLLIECSSGF | 0.451 ± 0.005 | 0.491 ± 0.0068 | 0.31 ± 0.046 | 0.493 ± 0.024 | 0.271 ± 0.0039 | 0.293 ± 0.035 | 0.508 ± 0.019 | 0.395 ± 0.045 |
| RLGSLVPLAKQL | 0.643 ± 0.11 | 0.745 ± 0.03 | 0.6729 ± 0.0062 | 0.737 ± 0.023 | 0.319 ± 0.0077 | 0.289 ± 0.023 | 0.413 ± 0.04 | 0.444 ± 0.059 |
| RLILAIVVSGGL | 0.4098 ± 0.0018 | 0.425 ± 0.033 | 0.295 ± 0.034 | 0.495 ± 0.0071 | 0.252 ± 0.015 | 0.305 ± 0.022 | 0.457 ± 0.03 | 0.389 ± 0.0071 |
| RLVGVRWEVCNL | 0.91 ± 0.041 | 0.902 ± 0.024 | 0.78 ± 0.041 | 0.86371 ± 0.00039 | 0.771 ± 0.022 | 0.772 ± 0.014 | 0.863 ± 0.019 | 0.744 ± 0.015 |
| RNNLHKKIRRGY | 0.681 ± 0.046 | 0.752 ± 0.0082 | 0.661 ± 0.043 | 0.745 ± 0.033 | 0.184 ± 0.028 | 0.251 ± 0.037 | 0.458 ± 0.013 | 0.413 ± 0.042 |
| RRLRPQTVAFLS | 0.593 ± 0.012 | 0.717 ± 0.03 | 0.676 ± 0.021 | 0.704 ± 0.028 | 0.159 ± 0.0046 | 0.176 ± 0.025 | 0.278 ± 0.0083 | 0.231 ± 0.04 |
